For four substances, koff and koff of the small fraction (8%) of complexes that release RF1(GAQ) slowly results are on record in publication PMC5995542.

Where only a bound is given, the exact number is not on record here.

Experiment [1] deals with PostHC, post-hydrolysis termination complex: E. coli 70S ribosome labelled with Cy3 at protein L11, deacylated tRNAfMet in the P site and the stop codon UAA in the A site (E. coli) (UniProt P0A7J7). Description: FRET or BRET; single-molecule FRET by TIRF, residence time: RF2-Cy5 (10 nM) on L11-Cy3 PostHC (peptide released by RF2) immobilised through mRNA-biotin:neutravidin; no RF3; imaging buffer pH 7.5, 15 mM MgCl2, 22°C. In general terms: BRET reads energy transfer from a luciferase to a nearby fluorophore.

Experiment [2] shares this target. Description: FRET or BRET; single-molecule FRET by TIRF, residence time: RF3-Cy5 (10 nM) with GDPNP (1 mM) on L11-Cy3 PostHC immobilised through mRNA-biotin:neutravidin; with saturating unlabelled RF1 (1 µM).
In experiment [3] the target is E. coli 70S ribosome termination complex labelled with Cy3 at protein L11 (PreHC, PostHC* or PostHC) (E. coli) (UniProt P0A7J7). Description: FRET or BRET; smFRET (TIRF), RF1(GAQ)-Cy5 (10 nM) on immobilised PreHC labelled at L11-Cy3, with excess unlabelled RF3 (1 µM) and GTP (1 mM); 22°C.
For experiment [4] the target is unchanged. The experiment in a line: FRET or BRET; smFRET (TIRF), RF1(GAQ)-Cy5 (10 nM) on immobilised PostHC* (puromycin) labelled at L11-Cy3, with excess unlabelled RF3 (1 µM) and GTP (1 mM); 22°C.
Experiment [5] shares this target. The experiment in a line: FRET or BRET; smFRET (TIRF) between factor-Cy5 (10 nM, in solution) and L11-Cy3 on PreHC or PostHC (peptide released by puromycin or by the factor) immobilised by mRNA-biotin:neutravidin; no RF3; imaging buffer pH 7.5, 15 mM MgCl2, 22°C; koff from residence times, limited by photobleaching (0.07–0.19 s^-1).
Experiment [6] has the same target. The experiment in a line: FRET or BRET; smFRET (TIRF), RF1-Cy5 (10 nM) on immobilised L11-Cy3 PreHC converted in situ to PostHC by RF1, with excess unlabelled RF3 (1 µM) and GTP (1 mM); 22°C.

As to “RF2-Cy5, single-cysteine release factor RF2(C273) labelled with Cy5 (from UniProt P07012 1-365) (natural protein)”, in experiment [1], the koff (commonly the rate constant with which the complex falls apart) stood at 0.84 s⁻¹.

The substance “RF3-Cy5, single-cysteine release factor RF3(L233C) labelled with Cy5 (from UniProt P0A7I4 1-529) (natural protein)” yielded a koff in experiment [2] of 2.5 s⁻¹.

Take “RF1(GAQ)-Cy5 (catalytically impaired RF1(G234A), Cy5-labelled) (from UniProt P0A7I0 1-360) (natural protein)”: the figures for the koff in experiment [3], in experiment [4] and in experiment [5] were under 0.3 s⁻¹, 1.3 s⁻¹ and under 0.2 s⁻¹, respectively. The substance further gave a koff of the small fraction (8%) of complexes that release RF1(GAQ) slowly in experiment [4] of 0.12 s⁻¹.

In the case of “RF1-Cy5 (release factor RF1, single-cysteine variant RF1(S167C) labelled with Cy5) (from UniProt P0A7I0 1-360) (natural protein)”, the koff is 1.2 s⁻¹ in experiment [6] and under 0.2 s⁻¹ in experiment [5].
